Experimental data published in patent US10093741 (FUSION PHARMACEUTICALS, dated 2018).
Values belong to the binder of their own block, whether it stands above or below them.

What was measured:
[1] = biological target: T1, insulin-like growth factor-1 receptor (IGF-1R) (human, UniProt P08069 31-1367); test: cell-based or functional assay
[2] = biological target: T1, insulin-like growth factor-1 receptor …; test: cell-based or functional assay; remark: listed apart in the source
[3] = biological target: T1, insulin-like growth factor-1 receptor …; test: saturation radioligand binding on IGF-1R expressing A431 cells, 4 °C, specific binding fitted to single-site model
Experimental: The purpose of this assay was to ensure that these new radioconjugates maintained binding characteristics consistent with the native antibody in an IGF-1R expressing A431 cell line. Twenty-four hours prior to the start of the experiment, 1.5×10^5 A431 cells were seeded in 48-well microplates in 500 μl supplemented medium. The radioconjugate was diluted with binding buffer (PBS+0.5% BSA) to a range of concentrations from 0.08 nM to 40 nM; final assay concentration 0.04 to 20 nM. At the start of the assay, the media is aspirated, discarded and 500 μl of serum-free DMEM was added to each well. The plates were incubated at 37° C. for 1 hour. Following incubation, media was aspirated from each well and discarded. The cells were washed and 100 μl of binding buffer (total binding assay) or, for non-specific binding assay, 4 μM cold-antibody was added to designated wells. Plates were incubated at 4° C. for 1 hour with mild shaking. Following the blocking step, 100 μl of radioimmunoconjugate was added to each well. The plates were then incubated at 4° C. for 2 hours. Following incubation, the contents of each well was aspirated and discarded. The cells were washed twice with PBS and were then lysed with 1% Triton-X-100. The lysates were transferred to counting tubes and run with radioconjugate standards on the Wizard 1470 gamma counter to determine the radioactivity content (in counts per minute (CPM)) for each lysate. The remaining lysate from each well (25 μl) was transferred to a 96-well plate, and the protein content of each lysate determined using a standard protein quantification assay. Total, non-specific and specific ligand binding determinations, mass of bound conjugate in each lysate were calculated by converting lysate CPM to fmol bound using the specific activity of the conjugate standards and then normalizing the fmol bound to the protein content of each lysate (in milligrams). Specific binding was determined by subtracting the non-specific binding from total binding. […]

[4] = biological target: T1, insulin-like growth factor-1 receptor …; test: saturation radioligand binding on Du-145 cells (prostate)
Experimental: (§1) Twenty-four hours prior to the start of the experiment, 1.5 ×10^5 cells were seeded in 48-well microplates in 500 µl supplemented medium. The radiolabeled conjugate was diluted with binding buffer (PBS+0.5% BSA) to a range of concentrations from 0.08 nM to 40 nM; final assay concentration 0.04 to 20 nM. At the start of the assay, the media is aspirated, discarded and 500 µl of serum-free DMEM was added to each well. The plates were incubated at 37° C. for 1 h. Following incubation, media was aspirated from each well and discarded. The cells were washed and 100 µl of binding buffer (total binding) or 4 µM cold-antibody (non-specific binding) added to designated wells. […] The lysates were transferred to counting tubes and run with labeled conjugate standards on the Wizard 1470 gamma counter to determine the radioactivity content (in counts per minute (CPM)) for each lysate. The remaining lysate from each well (25 µl) was transferred to a 96-well plate, and the protein content of each lysate determined using a standard protein quantification assay. Total, non-specific and specific ligand binding determinations, mass of bound conjugate in each lysate were calculated by converting lysate CPM to fmol bound using the specific activity of the conjugate standards and then normalizing the fmol bound to the protein content of each lysate (in milligrams). […]

[5] = biological target: T1, insulin-like growth factor-1 receptor …; test: saturation radioligand binding on LnCaP cells (prostate)
Experimental: as §1

[6] = biological target: T1, insulin-like growth factor-1 receptor …; test: saturation radioligand binding on H226 cells (NSCLC)
Experimental: as §1

[7] = biological target: T1, insulin-like growth factor-1 receptor …; test: saturation radioligand binding on BxPC3 cells (pancreatic)
Experimental: as §1

[8] = biological target: T1, insulin-like growth factor-1 receptor …; test: saturation radioligand binding on PC-3 cells (prostate)
Experimental: as §1

[9] = biological target: T1, insulin-like growth factor-1 receptor …; test: saturation radioligand binding on MiaPaca-II cells (pancreatic)
Experimental: as §1

[10] = biological target: T1, insulin-like growth factor-1 receptor …; test: saturation radioligand binding on A549 cells (NSCLC)
Experimental: as §1

[11] = biological target: T1, insulin-like growth factor-1 receptor …; test: saturation radioligand binding on A431 cells (epidermoid carcinoma)
Experimental: as §1

[12] = biological target: T1, insulin-like growth factor-1 receptor …; test: saturation radioligand binding on A431 epidermoid carcinoma cells
Experimental: The plates were incubated at 37° C. for 1 h. Following incubation, media was aspirated from each well and discarded. The cells were washed and 100 µl of binding buffer (total binding) or 4 µM cold-antibody (non-specific binding) added to designated wells. Plates were incubated at 4° C. for 1 h with mild shaking. Following the blocking step, 100 µl of labeled conjugate was added to each well. The plates were then incubated at 4° C. for 2 h. Following incubation, the contents of each well was aspirated and discarded. The cells were washed twice with PBS and were then lysed with 1% Triton-X-100. The lysates were transferred to counting tubes and run with labeled conjugate standards on the Wizard 1470 gamma counter to determine the radioactivity content (in counts per minute (CPM)) for each lysate. The remaining lysate from each well (25 µl) was transferred to a 96-well plate, and the protein content of each lysate determined using a standard protein quantification assay. Total, non-specific and specific ligand binding determinations, mass of bound conjugate in each lysate were calculated by converting lysate CPM to fmol bound using the specific activity of the conjugate standards and then normalizing the fmol bound to the protein content of each lysate (in milligrams). Specific binding was determined by subtracting the non-specific binding from total binding. […]

T1 sequence (P08069 31-1367): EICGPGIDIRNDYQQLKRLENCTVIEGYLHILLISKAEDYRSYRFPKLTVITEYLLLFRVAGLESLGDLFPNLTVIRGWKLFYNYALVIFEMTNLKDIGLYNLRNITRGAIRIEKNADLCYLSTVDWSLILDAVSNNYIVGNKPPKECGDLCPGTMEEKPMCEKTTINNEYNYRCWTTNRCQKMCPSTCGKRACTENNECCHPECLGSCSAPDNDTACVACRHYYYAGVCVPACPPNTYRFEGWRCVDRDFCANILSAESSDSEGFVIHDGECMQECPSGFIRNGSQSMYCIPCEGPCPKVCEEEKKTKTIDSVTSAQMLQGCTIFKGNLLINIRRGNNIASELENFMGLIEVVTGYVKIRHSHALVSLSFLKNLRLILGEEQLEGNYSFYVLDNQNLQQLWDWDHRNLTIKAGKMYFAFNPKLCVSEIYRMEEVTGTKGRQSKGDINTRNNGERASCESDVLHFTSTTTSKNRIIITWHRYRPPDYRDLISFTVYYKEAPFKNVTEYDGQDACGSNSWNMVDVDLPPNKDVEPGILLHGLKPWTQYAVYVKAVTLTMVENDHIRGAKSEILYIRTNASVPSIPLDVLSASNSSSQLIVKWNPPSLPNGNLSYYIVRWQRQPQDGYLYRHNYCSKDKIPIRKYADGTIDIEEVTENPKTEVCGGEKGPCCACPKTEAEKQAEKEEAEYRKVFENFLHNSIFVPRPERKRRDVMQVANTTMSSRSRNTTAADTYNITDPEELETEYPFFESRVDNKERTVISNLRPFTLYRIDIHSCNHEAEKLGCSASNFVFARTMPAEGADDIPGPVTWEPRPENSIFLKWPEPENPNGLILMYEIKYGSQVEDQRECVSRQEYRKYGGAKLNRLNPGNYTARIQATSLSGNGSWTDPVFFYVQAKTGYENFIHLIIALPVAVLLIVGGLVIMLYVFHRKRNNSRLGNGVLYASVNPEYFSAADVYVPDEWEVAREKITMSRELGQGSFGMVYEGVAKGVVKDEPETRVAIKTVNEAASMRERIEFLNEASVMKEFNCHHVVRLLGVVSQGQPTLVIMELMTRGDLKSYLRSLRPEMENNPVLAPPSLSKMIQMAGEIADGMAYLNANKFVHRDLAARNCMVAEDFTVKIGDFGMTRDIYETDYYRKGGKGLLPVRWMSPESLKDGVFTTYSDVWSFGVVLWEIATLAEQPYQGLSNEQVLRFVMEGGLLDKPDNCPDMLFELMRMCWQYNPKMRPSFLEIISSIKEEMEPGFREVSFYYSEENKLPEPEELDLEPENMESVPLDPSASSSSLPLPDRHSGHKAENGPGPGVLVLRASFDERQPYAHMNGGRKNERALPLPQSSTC

Compound Potency (IC50; µg/mL): inhibition of IGF-1 ligand stimulated autophosphorylation of IGF-1R in A431 cells, phospho-IGF-1R ELISA [1]: 0.04 µg/mL | Conjugate Potency (IC50; µg/mL): inhibition of IGF-1 ligand stimulated autophosphorylation of IGF-1R in A431 cells, phospho-IGF-1R ELISA; degree of substitution 0 DOTA/mAb (native antibody) [2]: 0.04 µg/mL
B1: HuMIGF-1R (AVE1642) (antibody, human IgG1, kappa)
light: DVVMTQTPLSLPVSLGDPASISCRSSQSIVHSNVNTYLEWYLQKPGQSPRLLIYKVSNRFSGVPDRFSGSGAGTDFTLRISRVEAEDLGIYYCFQGSHVPPTFGGGTKLEIKRTVAAPSVFIFPPSDEQLKSGTASVVCLLNNFYPREAKVQWKVDNALQSGNSQESVTEQDSKDSTYSLSSTLTLSKADYEKHKVYACEVTHQGLSSPVTKSFNRGEC
heavy: not shown

Kd [3]: 2.9 nM
B2: [^177Lu]-Compound A-HuMIGF-1R (antibody)
light: DVVMTQTPLSLPVSLGDPASISCRSSQSIVHSNVNTYLEWYLQKPGQSPRLLIYKVSNRFSGVPDRFSGSGAGTDFTLRISRVEAEDLGIYYCFQGSHVPPTFGGGTKLEIKRTVAAPSVFIFPPSDEQLKSGTASVVCLLNNFYPREAKVQWKVDNALQSGNSQESVTEQDSKDSTYSLSSTLTLSKADYEKHKVYACEVTHQGLSSPVTKSFNRGEC
heavy: not shown
modifications: Compound A (DOTA-GA anhydride) chelate conjugated to the antibody, sites not stated; chelate loaded with 177Lu
notes: also called Commercial Standard

Kd [3]: 2 nM
B3: [^177Lu]-Compound B-HuMIGF-1R (antibody)
light: DVVMTQTPLSLPVSLGDPASISCRSSQSIVHSNVNTYLEWYLQKPGQSPRLLIYKVSNRFSGVPDRFSGSGAGTDFTLRISRVEAEDLGIYYCFQGSHVPPTFGGGTKLEIKRTVAAPSVFIFPPSDEQLKSGTASVVCLLNNFYPREAKVQWKVDNALQSGNSQESVTEQDSKDSTYSLSSTLTLSKADYEKHKVYACEVTHQGLSSPVTKSFNRGEC
heavy: not shown
modifications: Compound B (DOTA-GA with undecanoyl linker, TFP ester) conjugated to the antibody, sites not stated; chelate loaded with 177Lu

Kd [4]: 3 nM | Kd [5]: 1.6 nM | Kd [6]: 2.3 nM | Compound Potency (IC50; µg/mL): inhibition of IGF-1 ligand stimulated autophosphorylation of IGF-1R in A431 cells, phospho-IGF-1R ELISA [1]: 0.04 µg/mL | Kd [7]: 2.9 nM | Kd [8]: 1.7 nM | Kd [9]: 1.9 nM | Kd [10]: 0.7 nM | Kd [11]: 2.2 nM | Kd [3]: 2.2 nM
B4: [^177Lu]-Compound C-HuMIGF-1R (antibody)
light: DVVMTQTPLSLPVSLGDPASISCRSSQSIVHSNVNTYLEWYLQKPGQSPRLLIYKVSNRFSGVPDRFSGSGAGTDFTLRISRVEAEDLGIYYCFQGSHVPPTFGGGTKLEIKRTVAAPSVFIFPPSDEQLKSGTASVVCLLNNFYPREAKVQWKVDNALQSGNSQESVTEQDSKDSTYSLSSTLTLSKADYEKHKVYACEVTHQGLSSPVTKSFNRGEC
heavy: not shown
modifications: Compound C (DOTA-GA with PEG3 linker, TFP ester) conjugated to the antibody, sites not stated; chelate loaded with 177Lu

Compound Potency (IC50; µg/mL): inhibition of IGF-1 ligand stimulated autophosphorylation of IGF-1R in A431 cells, phospho-IGF-1R ELISA [1]: 0.19 µg/mL | Kd [12]: 6.9 nM
B5: [^111In]-Compound C-HuMIGF-1R (antibody)
light: DVVMTQTPLSLPVSLGDPASISCRSSQSIVHSNVNTYLEWYLQKPGQSPRLLIYKVSNRFSGVPDRFSGSGAGTDFTLRISRVEAEDLGIYYCFQGSHVPPTFGGGTKLEIKRTVAAPSVFIFPPSDEQLKSGTASVVCLLNNFYPREAKVQWKVDNALQSGNSQESVTEQDSKDSTYSLSSTLTLSKADYEKHKVYACEVTHQGLSSPVTKSFNRGEC
heavy: not shown
modifications: Compound C (DOTA-GA with PEG3 linker, TFP ester) conjugated to the antibody, sites not stated; chelate loaded with 111In
